Target: I-A^q molecule of MHC (mouse (DBA/1))
Experiment: cell-based or functional assay

- IL-2 U/ml, T-cell hybridoma 2qCII92.33, molar ratio 0:1 (no competitor; baseline in the row of CII 245-270 [s260, 261, 263]): 160 U/ml
- IL-2 U/ml, T-cell hybridoma 2qCII92.33, molar ratio 0:1 (no competitor; baseline in the row of CII 245-270 [s266, 267, 269]): 160 U/ml
- IL-2 U/ml, T-cell hybridoma qCII85.33, molar ratio 0:1 (no competitor; baseline in the row of CII 245-270 [s260, 261, 263]): 640 U/ml
- IL-2 U/ml, T-cell hybridoma qCII85.33, molar ratio 0:1 (no competitor; baseline in the row of CII 245-270 [s266, 267, 269]): 640 U/ml
- IL-2 U/ml, T-cell hybridoma qCII98.10, molar ratio 0:1 (no competitor; baseline in the row of CII 245-270 [s260, 261, 263]): 160 U/ml
- IL-2 U/ml, T-cell hybridoma qCII98.10, molar ratio 0:1 (no competitor; baseline in the row of CII 245-270 [s266, 267, 269]): 160 U/ml
Binder: PTGPLGPKGQTGZLGIAGFKGZQGPK [CII 245-270]
